Source: patent publication US20220363766A1, “COMPOSITIONS AND METHODS FOR TREATING CYTOTOXIC T CELL RESISTANT TUMORS” (Dana-Farber Cancer Institute, Inc., priority 2019, published 2022)
Entries after “also recorded” stand apart in the source; their conditions may differ.

B1: 7C6-hIgG1: MICA/B α3 domain specific mAb, clone 7C6 with human IgG1 Fc (antibody, V domains shown)
VH: QIQLVQSGPELKKPGETVKVSCKASGYMFTNYAMNWVKQAPEKGLKWMGWINTHTGDPTYADDFKGRIAFSLETSASTAYLQINNLKNEDTATYFCVRTYGNYAMDYWGQGTSVTVSS
VL: DIQMTQTTSSLSASLGDRVTISCSASQDISNYLNWYQQKPDGTVKLLIYDTSILHLGVPSRFSGSGSGTDYSLTISNLEPEDIATYYCQQYSKFPRTFGGGTTLEIK

Columns and labels:
human NK cells = assay: Characterization of human NK cells in tumor-free NSG mice; type: in vivo; settings: 10 mg/kg, 24 hours later, blood
Method: (§1) Tumor-free NSG mice were inoculated intravenously with 2×10^6 human NK cells that were expanded in vitro as described above. At the same time, mice also received intraperitoneal injections of IL-2 (7.5×10^4) as well as panobinostat (10 mg/kg) or PBS as the solvent control. One day later, blood was collected via eye bleeding, and human NK cells were analyzed by flow cytometry.
as §1, with “(7.5×10^4, Peprotech)” for “(7.5×10^4)”

MICA/B = MICA/B shedding assays in A375 melanoma cells (shed MICA ELISA, MICA/B surface levels by flow cytometry); type: cell-based; settings: control and B2M-KO A375 cells, 24 hours, vs isotype control
Method: 5×10^4 tumor cells were cultured for 24 hours in 96-wells plates (flat-bottom for adherent cells or U-bottom for suspension cells) in the presence of different concentrations of antibodies, IFNγ, and/or panobinostat (ApexBio, catalog number A8178), as indicated in each figure. Following a 24-hour culture period, plates were centrifuged for 5 minutes at 500× g, and supernatants were collected for analysis of shed MICA using the Human MICA ELISA Kit (Abcam, catalog number ab59569).
Adherent cells were detached with Versene (Gibco, catalog number 15040-066) to preserve the integrity of MICA/B proteins on the cell surface. Fc receptors were blocked using Human TruStain FcX™ (Biolegend, catalog number 422302), and cells were stained with PE or APC-conjugated anti-human MICA/B clone 6D4 (Biolegend, catalog numbers 320906 or 320908, respectively). […] Data were acquired using a BD Fortessa X20 or Beckman Coulter CytoFLEX LX, and analyses were performed using FlowJo V10 software.
5×10^4 tumor cells were cultured for 24 hours in 96-wells plates (flat-bottom for adherent cells or U-bottom for suspension cells) in the presence of different concentrations of antibodies, IFNγ, and/or panobinostat (ApexBio, catalog number A8178), as indicated in each figure. […]

A375 melanoma cells = assay: Long-term NK cell-mediated killing assay (image cytometry of GFP+ tumor cells); type: cell-based; settings: mAb 20 μg/ml pretreatment 24 hours, human NK cells, IL-2 300 U/ml, 72-hour period
Method: (§2) For long-term NK cell-mediated killing assays, GFP^+ control and B2M-KO A375 cells were pretreated for 24 hours with MICA/B or isotype control mAbs (20 μg/ml) in tissue culture media. Subsequently, tumor cells were detached with Versene, washed with PBS, and plated in black-wall 96-well plates (Corning™, catalog number 3603) at a density of 5×10^3 cells per well. Human NK cells were added 1-2 hours later at different effector to target ratios as indicated in the figures, and IL-2 (300 U/ml) was added to support NK cell survival. The number of GFP^+ tumor cells was tracked over time using a Celigo Image Cytometer (Nexcelom Bioscience, Lawrence, USA), as reported previously.^40
as §2, with “U/ml, BD Biosciences)” for “U/ml)”, “previously (33).” for “previously.^40”

| Molecule | impact on human NK cells transferred to NSG mice (circulating NK cells, CD16a or NKG2D positive NK cells) (human NK cells) | MICA shedding (shed MICA, sandwich ELISA) (MICA/B) | surface levels of MICA/B (flow cytometry) (MICA/B) | efficacy in NK cell-mediated killing, B2M-KO vs control A375 cells (A375 melanoma cells) |
| --- | --- | --- | --- | --- |
| Cc1[nH]c2ccccc2c1CCNCc1ccc(/C=C/C(=O)NO)cc1 [panobinostat] | did not negatively impact human NK cells; also recorded: did not inhibit reconstitution of NSG mice with human NK cells | – | – | – |
| B1 | – | inhibited MICA shedding | increased surface levels of MICA/B | substantially more effective against B2M-KO compared to control A375 melanoma cells |
